# No end group written: not given here.
# Target: P-glycoprotein (UniProt P08183 1-1280)
# Assay: cell-based or functional assay
# P-glycoprotein, sequence (P08183 whole entry): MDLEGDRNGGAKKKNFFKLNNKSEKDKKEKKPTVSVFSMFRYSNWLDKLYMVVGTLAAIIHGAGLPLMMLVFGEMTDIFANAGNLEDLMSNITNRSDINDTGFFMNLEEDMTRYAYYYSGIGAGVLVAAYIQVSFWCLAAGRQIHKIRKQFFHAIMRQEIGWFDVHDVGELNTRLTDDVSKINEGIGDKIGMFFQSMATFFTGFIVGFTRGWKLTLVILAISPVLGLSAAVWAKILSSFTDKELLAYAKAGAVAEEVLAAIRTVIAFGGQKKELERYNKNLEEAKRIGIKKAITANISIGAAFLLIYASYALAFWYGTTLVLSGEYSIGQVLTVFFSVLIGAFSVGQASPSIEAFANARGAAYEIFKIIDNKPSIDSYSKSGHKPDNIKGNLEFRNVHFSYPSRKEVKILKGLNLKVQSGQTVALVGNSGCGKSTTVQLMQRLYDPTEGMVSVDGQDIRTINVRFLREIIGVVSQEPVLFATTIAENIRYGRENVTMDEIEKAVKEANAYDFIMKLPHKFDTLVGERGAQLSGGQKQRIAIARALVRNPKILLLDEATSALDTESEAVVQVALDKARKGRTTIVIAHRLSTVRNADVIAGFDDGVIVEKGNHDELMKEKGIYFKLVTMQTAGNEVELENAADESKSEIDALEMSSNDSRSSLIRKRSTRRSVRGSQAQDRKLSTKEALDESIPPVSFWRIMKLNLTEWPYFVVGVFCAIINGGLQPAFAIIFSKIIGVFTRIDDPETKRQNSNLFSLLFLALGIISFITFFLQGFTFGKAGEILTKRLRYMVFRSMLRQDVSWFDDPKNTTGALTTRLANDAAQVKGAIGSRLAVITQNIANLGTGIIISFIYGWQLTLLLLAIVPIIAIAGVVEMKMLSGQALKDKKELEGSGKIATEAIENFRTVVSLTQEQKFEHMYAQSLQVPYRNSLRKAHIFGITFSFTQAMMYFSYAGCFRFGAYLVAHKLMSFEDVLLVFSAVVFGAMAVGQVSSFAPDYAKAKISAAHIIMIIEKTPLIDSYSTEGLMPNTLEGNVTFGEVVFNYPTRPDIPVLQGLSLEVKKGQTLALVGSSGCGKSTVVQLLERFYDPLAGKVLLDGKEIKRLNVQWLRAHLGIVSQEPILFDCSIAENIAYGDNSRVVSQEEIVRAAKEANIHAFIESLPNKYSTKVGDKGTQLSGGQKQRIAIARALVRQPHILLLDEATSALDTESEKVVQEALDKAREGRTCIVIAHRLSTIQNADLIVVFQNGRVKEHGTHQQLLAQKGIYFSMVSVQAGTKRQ
"Enhancement ratio of Rhodamine-123 transport against the control, peptide 0.02 mg/ml","Enhancement ratio of Rhodamine-123 transport against the control, peptide concentration given as 2 mg/ml (caption: 0.2 mg/mL)","Papp of Rhodamine-123 through a Caco-2 monolayer (basolateral to apical), peptide 0.02 mg/ml","Papp of Rhodamine-123 through a Caco-2 monolayer (basolateral to apical), peptide concentration given as 2 mg/ml (caption: 0.2 mg/mL)",Binder
0.9 ratio,1.7 ratio,10.1 ×10⁻⁶ cm/s,18.4 ×10⁻⁶ cm/s,Ac-AAAAAAD-OH [acetyl-AAAAAAD-COOH]
1.2 ratio,1.4 ratio,13 ×10⁻⁶ cm/s,15.1 ×10⁻⁶ cm/s,DAAAAAA-OH [DAAAAAA-COOH]
1 ratio,1 ratio,10.8 ×10⁻⁶ cm/s,10.5 ×10⁻⁶ cm/s,KAAAAAA-NH2 [KAAAAAA-CONH2]
0.9 ratio,1.7 ratio,10 ×10⁻⁶ cm/s,18.2 ×10⁻⁶ cm/s,Ac-AAAAAAK-NH2 [acetyl-AAAAAAK-CONH2]
